{"source": "patent US20140287434", "proteins": {"B1": {"name": "FLAG-tagged Tec full-length enzyme (enzyme, UniProt P42680 1-631, looked up, species assumed)", "chain": "MNFNTILEEILIKRSQQKKKTSPLNYKERLFVLTKSMLTYYEGRAEKKYRKGFIDVSKIKCVEIVKNDDGVIPCQNKYPFQVVHDANTLYIFAPSPQSRDLWVKKLKEEIKNNNNIMIKYHPKFWTDGSYQCCRQTEKLAPGCEKYNLFESSIRKALPPAPETKKRRPPPPIPLEEEDNSEEIVVAMYDFQAAEGHDLRLERGQEYLILEKNDVHWWRARDKYGNEGYIPSNYVTGKKSNNLDQYEWYCRNMNRSKAEQLLRSEDKEGGFMVRDSSQPGLYTVSLYTKFGGEGSSGFRHYHIKETTTSPKKYYLAEKHAFGSIPEIIEYHKHNAAGLVTRLRYPVSVKGKNAPTTAGFSYEKWEINPSELTFMRELGSGLFGVVRLGKWRAQYKVAIKAIREGAMCEEDFIEEAKVMMKLTHPKLVQLYGVCTQQKPIYIVTEFMERGCLLNFLRQRQGHFSRDVLLSMCQDVCEGMEYLERNSFIHRDLAARNCLVSEAGVVKVSDFGMARYVLDDQYTSSSGAKFPVKWCPPEVFNYSRFSSKSDVWSFGVLMWEVFTEGRMPFEKYTNYEVVTMVTRGHRLYQPKLASNYVYEVMLRCWQEKPEGRPSFEDLLRTIDELVECEETFGR", "modifications": "full-length FLAG tag"}, "B2": {"name": "FLAG-tagged Itk LKD enzyme (protein)", "chain": "CSWRQKAPVTAGLRYGKWVIQPSELTFVQEIGSGQFGLVHLGYWLNKDKVAIKTIQEGAMSEEDFIEEAEVMMKLSHPKLVQLYGVCLEQAPICLVFEFMEHGCLSDYLRSQRGLFAAETLLGMCLDVCEGMAYLEKACVIHRDLAARNCLVGENQVIKVSDFGMTRFVLDDQYTSSTGTKFPVKWASPEVFSFSRYSSKSDVWSFGVLMWEVFSEGKIPYENRSNSEVVEDISTGFRLYKPRLASCHVYQIMNHCWKEKPEDRPPFSQLLSQLAEIAEAGL"}, "B3": {"name": "FLAG-tagged Itk full-length (FLItk) enzyme (protein)", "chain": "MNNFILLEEQLIKKSQQKRRTSPSNFKVRFFVLTKASLAYFEDRHGKKRTLKGSIELSRIKCVEIVKSDISIPCHYKYPFQTLVYLQVVHDNYLLYVFAPDCESRQRWVLTLKEETRNNNSLVSKYHPNFWMDGRWRCCSQLEKPAVGCAPYDPSKNASKKPLPPTPEDNRRSFQEPEETLVIALYDYQTNDPQELALRCDEEYYLLDSSEIHWWRVQDKNGHEGYAPSSYLVEKSPNNLETYEWYNKSISRDKAEKLLLDTGKEGAFMVRDSRTPGTYTVSVFTKAIISENPCIKHYHIKETNDSPKRYYVAEKYVFDSIPLLIQYHQYNGGGLVTRLRYPVCSWRQKAPVTAGLRYGKWVIQPSELTFVQEIGSGQFGLVHLGYWLNKDKVAIKTIQEGAMSEEDFIEEAEVMMKLSHPKLVQLYGVCLEQAPICLVFEFMEHGCLSDYLRSQRGLFAAETLLGMCLDVCEGMAYLEKACVIHRDLAARNCLVGENQVIKVSDFGMTRFVLDDQYTSSTGTKFPVKWASPEVFSFSRYSSKSDVWSFGVLMWEVFSEGKIPYENRSNSEVVEDISTGFRLYKPRLASCHVYQIMNHCWKEKPEDRPPFSQLLSQLAEIAEAGL"}, "B4": {"name": "FLAG-tagged Itk kinase domain (Itk KD) (protein)", "chain": "VIQPSELTFVQEIGSGQFGLVHLGYWLNKDKVAIKTIQEGAMSEEDFIEEAEVMMKLSHPKLVQLYGVCLEQAPICLVFEFMEHGCLSDYLRSQRGLFAAETLLGMCLDVCEGMAYLEKACVIHRDLAARNCLVGENQVIKVSDFGMTRFVLDDQYTSSTGTKFPVKWASPEVFSFSRYSSKSDVWSFGVLMWEVFSEGKIPYENRSNSEVVEDISTGFRLYKPRLASCHVYQIMNHCWKEKPEDRPPFSQLLSQLAEIAEAGL"}, "B5": {"name": "Catalytically inactive (K390R) Itk kinase domain (KD) (protein)", "chain": "B4 chain with K29R"}, "B6": {"name": "Catalytically inactive (K390R) Itk SH2-kinase domain (2KD) (protein)", "chain": "EWYNKSISRDKAEKLLLDTGKEGAFMVRDSRTPGTYTVSVFTKAIISENPCIKHYHIKETNDSPKRYYVAEKYVFDSIPLLIQYHQYNGGGLVTRLRYPVCSWRQKAPVTAGLRYGKWVIQPSELTFVQEIGSGQFGLVHLGYWLNRDKVAIKTIQEGAMSEEDFIEEAEVMMKLSHPKLVQLYGVCLEQAPICLVFEFMEHGCLSDYLRSQRGLFAAETLLGMCLDVCEGMAYLEKACVIHRDLAARNCLVGENQVIKVSDFGMTRFVLDDQYTSSTGTKFPVKWASPEVFSFSRYSSKSDVWSFGVLMWEVFSEGKIPYENRSNSEVVEDISTGFRLYKPRLASCHVYQIMNHCWKEKPEDRPPFSQLLSQLAEIAEAGL"}}, "key": {"[1]": {"test_system": "Tec SH3-SH2 (Tec 32)"}, "[2]": {"test_system": "Tec SH3"}, "[3]": {"target": "T1, Peptide B", "T1 chain": "EQEDEPEGIYGVLF"}, "[4]": {"target": "T2, biotinylated PLCγ1 SH2C-Peptide B fusion protein, P10686", "T2 chain": "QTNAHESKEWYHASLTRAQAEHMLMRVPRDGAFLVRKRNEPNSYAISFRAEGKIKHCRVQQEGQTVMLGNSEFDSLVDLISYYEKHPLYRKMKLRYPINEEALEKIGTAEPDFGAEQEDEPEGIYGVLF"}, "[5]": {"target": "Grb2 SH2 domain", "sequence (chain, as listed by the source)": "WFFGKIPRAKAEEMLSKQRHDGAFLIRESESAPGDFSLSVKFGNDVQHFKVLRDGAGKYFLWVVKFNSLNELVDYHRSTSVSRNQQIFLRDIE"}, "[6]": {"target": "T3, Itk SH3, Q03526", "T3 chain": "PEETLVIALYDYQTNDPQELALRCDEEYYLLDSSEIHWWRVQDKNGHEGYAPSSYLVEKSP"}, "[7]": {"target": "T4, Itk SH3-Linker (Itk 3Linker), Q03526", "T4 chain": "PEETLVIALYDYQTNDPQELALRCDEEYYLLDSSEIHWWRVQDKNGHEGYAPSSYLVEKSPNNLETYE"}, "[8]": {"target": "Itk SH3-SH2 (Itk 32), Q03526"}, "[9]": {"target": "N-terminal Phosphatidylinositol 3-Kinase (p85α) SH2 domain (PI3K SH2)"}, "[10]": {"target": "T5, PLCγ1 -Y783-SH3, P10686", "T5 chain": "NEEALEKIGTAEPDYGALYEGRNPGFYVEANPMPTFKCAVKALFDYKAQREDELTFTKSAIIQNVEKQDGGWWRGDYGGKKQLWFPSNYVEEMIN"}, "[11]": {"target": "T6, PLCγ1 SH2C -Y783-, P10686", "T6 chain": "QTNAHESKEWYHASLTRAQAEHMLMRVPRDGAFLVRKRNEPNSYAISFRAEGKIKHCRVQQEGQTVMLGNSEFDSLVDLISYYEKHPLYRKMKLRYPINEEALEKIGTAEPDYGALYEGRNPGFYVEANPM"}, "[12]": {"target": "T7, free Itk SH2 domain, Q03526", "T7 chain": "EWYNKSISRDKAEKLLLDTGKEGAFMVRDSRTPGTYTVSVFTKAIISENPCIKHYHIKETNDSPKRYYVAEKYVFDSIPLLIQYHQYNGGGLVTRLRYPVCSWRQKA"}, "[13]": {"target": "T8, free PLCγ1 SH2C domain, P10686", "T8 chain": "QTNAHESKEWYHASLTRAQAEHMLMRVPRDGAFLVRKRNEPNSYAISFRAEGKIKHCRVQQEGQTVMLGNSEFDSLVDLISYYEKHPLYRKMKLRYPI"}, "[14]": {"target": "full-length wild-type Lck"}}, "note": "Substitutions are numbered along the chain they refer to. In names and notes the source's numbering stands.", "data": [{"protein": "B1", "values": [{"measurement": "phosphorylation on Y187 in an in vitro kinase assay", "setting": "[1]", "result": "only substrates that contain both the site of phosphorylation (Y180 for Itk, Y187 for Tec, Y223 for Btk, and Y783 for PLCγ1) and the adjacent SH2 domain are phosphorylated by the Tec kinases"}, {"measurement": "phosphorylation on Y187 in an in vitro kinase assay", "setting": "[2]", "result": "are not phosphorylated by the Tec and Btk kinases"}]}, {"protein": "B2", "values": [{"measurement": "Km", "setting": "[3]", "result": 87, "unit": "µM for Peptide B alone"}, {"measurement": "Km", "setting": "[4]", "result": "5.64 µM for the SH2-Peptide B fusion"}, {"measurement": "fold increase in substrate affinity against Peptide B alone", "setting": "[4]", "result": "exhibiting a 15-fold increase in substrate affinity"}, {"measurement": "kcat/Km against Peptide B alone", "setting": "[4]", "result": "Peptide B is a better substrate by 7-fold (kat/Km) when tethered to the SH2 domain of PLCγ1"}]}, {"protein": "B3", "values": [{"measurement": "phosphorylation of Itk 32 and PLCγ1 SH2C -Y783- by full-length Itk", "setting": "[5]", "result": "two different control SH2 domains (derived from PI3K and Grb2) do not inhibit the phosphorylation of the substrates even at large molar excess"}, {"measurement": "phosphorylation on Y180 in an in vitro kinase assay", "setting": "[6]", "result": "the isolated SH3 domain does not serve as a substrate for full length Itk"}, {"measurement": "phosphorylation on Y180 in an in vitro kinase assay", "setting": "[7]", "result": "Only Itk fragments that contain the SH2 domain and Y180 are phosphorylated by Itk"}, {"measurement": "phosphorylation on Y180 in an in vitro kinase assay", "setting": "[8]", "result": "only substrates that contain both the site of phosphorylation (Y180 for Itk, Y187 for Tec, Y223 for Btk, and Y783 for PLCγ1) and the adjacent SH2 domain are phosphorylated by the Tec kinases"}, {"measurement": "phosphorylation of Itk 32 and PLCγ1 SH2C -Y783- by full-length Itk", "setting": "[9]", "result": "two different control SH2 domains (derived from PI3K and Grb2) do not inhibit the phosphorylation of the substrates even at large molar excess"}, {"measurement": "phosphorylation on Y783 in an in vitro kinase assay", "setting": "[10]", "result": "is not phosphorylated by full length Itk"}, {"measurement": "phosphorylation on Y783 in an in vitro kinase assay", "setting": "[11]", "result": "only substrates that contain both the site of phosphorylation (Y180 for Itk, Y187 for Tec, Y223 for Btk, and Y783 for PLCγ1) and the adjacent SH2 domain are phosphorylated by the Tec kinases"}, {"measurement": "autophosphorylation of Tyr 180 within full length Itk", "setting": "[12]", "result": "autophosphorylation at this site is greatly diminished upon addition of free Itk SH2 domain"}, {"measurement": "initial velocity of peptide B phosphorylation by full length Itk", "setting": "[12]", "result": "do not change significantly with increasing concentrations of Itk SH2 domain"}, {"measurement": "phosphorylation of Itk 32 substrate on Y180 by full-length Itk (anti-pY180 blot)", "setting": "[12]", "result": "free Itk SH2 domain competes with the Itk 32 substrate"}, {"measurement": "phosphorylation of PLCγ1 SH2C -Y783- substrate by full-length Itk (anti-pY783 blot)", "setting": "[13]", "result": "The PLCγ1 SH2 domain competes with the PLCγ1 substrate in a similar manner"}]}, {"protein": "B4", "values": [{"measurement": "phosphorylation of Itk 32 by the isolated Itk kinase domain (anti-pY180 blot)", "setting": "[8]", "result": "The Itk catalytic fragment leads to substrate phosphorylation"}]}, {"protein": "B5", "values": [{"measurement": "phosphorylation of Itk Y511 by Lck (Btk phosphoY551 antibody blot)", "setting": "[14]", "result": "phosphorylation of the Itk kinase domain alone (on Y511) by Lck is very inefficient"}]}, {"protein": "B6", "values": [{"measurement": "phosphorylation of Itk Y511 by Lck (Btk phosphoY551 antibody blot)", "setting": "[14]", "result": "Lck phosphorylation of the SH2-kinase fragment of Itk proceeds readily"}]}]}
